The record followed here is patent US20230052646A1 (JJP BIOLOGICS SP Z O O, published 2023).

In experiment [1] the target is T1, membrane-bound full-length human HVEM on stable HVEM-transfected HEK293F cells (clone no. 128) (human, UniProt Q92956 39-283).
T1 construct: The same cDNA was also expressed on Sf9 insect cells; also called TNFRSF14; CD270
T1 sequence: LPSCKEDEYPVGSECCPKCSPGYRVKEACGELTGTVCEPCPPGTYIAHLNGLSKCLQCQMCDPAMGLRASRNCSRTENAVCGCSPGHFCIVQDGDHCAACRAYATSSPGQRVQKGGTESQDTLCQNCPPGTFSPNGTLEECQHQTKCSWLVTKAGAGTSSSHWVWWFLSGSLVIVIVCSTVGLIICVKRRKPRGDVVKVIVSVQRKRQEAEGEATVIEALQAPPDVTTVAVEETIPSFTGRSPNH
Nature of the experiment: FACS titration on HVEM-HEK293F, half-maximum binding. How it is done:
In order to determine the relative binding affinity of purified BTLA/HVEM blocking chimeric mouse/human anti-human HVEM antibodies no. 36H12, 45H6, 48H6, 11H7, and 49G4 for human HVEM, FACS analysis was used.
To this end, stable human full-length HVEM-transfected HEK293F cells (clone no. 128; see Example 1(a) above) were put at 10×10⁶ cells/mL in ice-chilled PBS containing 0.1% BSA (Sigma)/0.05% NaN₃ (PBS/BSA/NaN₃) supplemented with 50 μg/mL human IgGs (blocking possible Fcγ receptors; Sigma) for 10 minutes at 4° C. Then, 10 μL/tube (i.e., 0.1×10⁶ cells) of these cells were incubated with or without 100 μL titrated (in PBS/BSA/NaN₃) purified BTLA/HVEM blocking chimeric mouse/human anti-human HVEM antibody/tube for 30 minutes at 4° C. After extensive washing in PBS/BSA/NaN₃, cells were subsequently incubated with 1:200 diluted PE-conjugated goat anti-human IgG Fcγ-specific antibodies (Jackson ImmunoResearch) for 30 minutes at 4° C. After extensive washing in PBS/BSA/NaN₃, cells were fixed in 4% formaldehyde in PBS/BSA/NaN₃ for 30 minutes at 4° C. Binding (geo-mean fluorescence intensity) of chimeric mouse/human anti-human HVEM antibodies no. 36H12, 45H6, 48H6, 11H7, and 49G4 on membrane human HVEM was measured using a flow cytometer (FACSCalibur; BD Biosciences). For comparison, purified BTLA/HVEM blocking mouse anti-human HVEM antibody counterparts no. 36H12, 45H6, 48H6, 11H7, and 49G4 were run in parallel, and their binding was monitored as described in Example 2 (a).

Experiment [2] addresses T1, membrane-bound full-length human HVEM …. The experiment can be described thus: FACS, Ab 10 µg/mL then biotinylated BTLA on HVEM-HEK293F. How it is done:
(§1) Generation of human ‘full-length’ HVEM-transfected HEK293F cells (clone no. 128) is described in Example 1a. Binding of soluble human BTLA, of soluble human CD160, of soluble human LIGHT, and of soluble human TNFβ on surface human HVEM-transfected cells was analysed by FACS analysis. To this end, stable human full-length HVEM-transfected HEK293F cells were put at 10×10⁶ cells/mL in ice-chilled phosphate-buffered saline containing 0.1% BSA (Sigma)/0.05% NaN₃ (PBS/BSA/NaN₃) supplemented with 50 μg/mL human IgGs (blocking possible Fcγ receptors; Sigma) for 10 minutes at 4° C. Then, 10 μL/tube (i.e., 0.1×10⁶ cells) of these cells were incubated with or without 100 μL purified chimeric mouse/human anti-HVEM antibody at 10 μg/mL/tube or a human IgG4/κ (Sigma) negative isotype control at 10 μg/mL/tube for 30 minutes at 4° C. After this (i.e., without washing), cells were subsequently incubated with 1 μg/mL soluble biotinylated human BTLA (Sino Biological Inc), with 10 μg/mL soluble his-tagged human CD160 (Sino Biological Inc), with 1 μg/mL soluble his-tagged human LIGHT (Sino Biological Inc), or with 0.1 μg/mL soluble biotinylated human TNFβ (Sino Biological Inc) in PBS/BSA/NaN₃ for 30 minutes at 4° C. After extensive washing in PBS/BSA/NaN₃, cells were incubated with 1:200 diluted PE-conjugated streptavidin (detection BTLA and TNFβ; Jackson ImmunoResearch) or with biotinylated mouse anti-his antibody (detection CD160 and LIGHT; R&D Systems) at 10 μg/mL for 30 minutes at 4° C. After extensive washing in PBS/BSA/NaN₃, cells were incubated with 1:200 diluted PE-conjugated streptavidin (detection CD160 and LIGHT; Jackson ImmunoResearch) for 30 minutes at 4° C. After extensive washing in PBS/BSA/NaN₃, cells were fixed in 4% formaldehyde in PBS/BSA/NaN₃ for 30 minutes at 4° C. Binding of ligands BTLA, CD160, LIGHT and TNFβ on membrane human HVEM was measured using a flow cytometer (model FACSCalibur; BD Biosciences). For comparison, purified BTLA/HVEM blocking mouse anti-human HVEM antibody counterparts no. 36H12, 45H6, 48H6, 11H7, and 49G4 at 10 μg/mL/tube and a mouse IgG1 (BD Biosciences) negative isotype control at 10 μg/mL/tube were run in parallel.

Experiment [3] deals with T2, membrane-bound 'CRD1 truncated' human HVEM on transiently transfected HEK293F cells (human, UniProt Q92956 76-283).
T2 construct: aa 1-19 are a mouse Ig signal peptide and are left out; Starts with CRD2; also called human HVEM deleted for CRD1; CRD1 truncated HVEM
T2 sequence: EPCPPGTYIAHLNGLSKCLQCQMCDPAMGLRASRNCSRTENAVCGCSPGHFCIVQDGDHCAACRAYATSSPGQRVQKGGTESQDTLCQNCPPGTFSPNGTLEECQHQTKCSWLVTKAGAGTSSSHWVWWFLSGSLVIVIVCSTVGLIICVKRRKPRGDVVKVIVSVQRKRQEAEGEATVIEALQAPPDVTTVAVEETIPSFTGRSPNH
The experiment can be described thus: FACS, undiluted hybridoma supernatant, CRD1 truncated HVEM on HEK293F. Here is the method:
Generation of human ‘full-length’ HVEM-transfected HEK293F cells (clone no. 128) is described in Example 1a. […] After 72 hours, surface human HVEM expression on transfected cells was analysed by FACS analysis. To this end, stable human full-length HVEM-transfected HEK293F cells and transient human ‘CRD1 truncated’ HVEM-transfected HEK293F cells were put at 10×10⁶ cells/mL in ice-chilled phosphate-buffered saline containing 0.1% BSA (Sigma)/0.05% NaN₃ (PBS/BSA/NaN₃) supplemented with 50 μg/mL human IgGs (blocking of possible Fcγ receptors; Sigma) for 10 minutes at 4° C. Then, 10 μL/tube (i.e., 0.1×10⁶ cells) of these cells were incubated with 100 μL undiluted hybridoma supernatant/tube for 30 minutes at 4° C. Phycoerythrin (PE)-conjugated mouse anti-human HVEM antibody (clone eBioHVEM-122; eBioscience) at 1:20 was run as a positive control antibody. After extensive washing in PBS/BSA/NaN₃, cells were subsequently incubated with 1:200 diluted PE-conjugated goat anti-mouse IgG Fcγ-specific antibodies (Jackson ImmunoResearch) for 30 minutes at 4° C. After extensive washing in PBS/BSA/NaN₃, cells were fixed in 2% formaldehyde in PBS/BSA/NaN₃ for 30 minutes at 4° C. Binding of antibodies was measured using a flow cytometer (model FACSCalibur; BD Biosciences).

In experiment [4] the target is T1, membrane-bound full-length human HVEM …. Nature of the experiment: FACS, Ab 10 µg/mL then biotinylated TNFβ on HVEM-HEK293F. Here is the method:
as §1
(In general: In flow cytometry, cells or beads pass a laser one at a time.)

Experiment [5] has the same target. The experiment can be described thus: FACS, biotinylated TNFβ pre-bound, then Ab 20 µg/mL. Here is the method:
(§2) Generation of human ‘full-length’ HVEM-transfected HEK293F cells (clone no. 128) is described in Example 1a. Displacement of pre-bound soluble human BTLA, soluble human CD160, soluble human LIGHT, and soluble human TNFβ from surface human HVEM-transfected cells was analysed by FACS analysis. To this end, stable human full-length HVEM-transfected HEK293F cells were put at 10×10⁶ cells/mL in ice-chilled phosphate-buffered saline containing 0.1% BSA (Sigma)/0.05% NaN₃ (PBS/BSA/NaN₃) supplemented with 50 μg/mL human IgGs (blocking possible Fcγ receptors; Sigma) for 10 minutes at 4° C. Then, 10 μL/tube (i.e., 0.1×10⁶ cells) of these cells were incubated without or with 50 μL soluble biotinylated human BTLA-human Fcγ fusion protein (Sino Biological Inc) at 2 μg/mL/tube, with soluble his-tagged human CD160 (Sino Biological Inc) at 20 μg/mL/tube, with soluble his-tagged human LIGHT (Sino Biological Inc) at 2 μg/mL/tube, or with soluble biotinylated human TNFβ (Sino Biological Inc) at 0.2 μg/mL/tube in PBS/BSA/NaN₃ for 30 minutes at 4° C. After this (i.e., without washing), cells were subsequently incubated with 50 μL purified chimeric mouse/human anti-HVEM antibody at 20 μg/mL/tube or a human IgG4/κ (Sigma) negative isotype control at 20 μg/mL/tube for 30 minutes at 4° C. […] After extensive washing in PBS/BSA/NaN₃, cells were incubated with 1:200 diluted PE-conjugated streptavidin (detection CD160 and LIGHT; Jackson ImmunoResearch) for 30 minutes at 4° C. After extensive washing in PBS/BSA/NaN₃, cells were fixed in 4% formaldehyde in PBS/BSA/NaN₃ for 30 minutes at 4° C. Residual binding of ligands BTLA, CD160, LIGHT and TNFβ on membrane human HVEM was measured using a flow cytometer (model FACSCalibur; BD Biosciences).

For experiment [6] the target is unchanged. The experiment can be described thus: FACS, biotinylated BTLA-Fc pre-bound, then Ab 20 µg/mL. Here is the method: as §2

B1: mouse anti-human HVEM antibody no. 45H6 (antibody, mouse IgG1, V domains shown)
VH: DVQLVESGGGLVQPGGSRKLSCAASGFTFSSFGMHWVRQAPEKGLEWVAYISSGNSNIYYVDTVKGRFTISRDNPKNTLFLQMTSLRSEDTAMYYCARKRAYGDYSGFSMDYWGQGTSVTVSS
VL: DIVMTQSQKFMSTSVGDRVSVTCKASQNVDTNVAWYQQKPGQSPKALIYSASYRYSGVPDRFTGSGSGTDFTLTISNVQSEDLAEYFCQQYNKFPLTFGGGTKLEIK
notes: mouse IgG1/kappa; also called 45H6 (mouse)
What is called EC50 is the midpoint of the concentration-response curve. B1 showed an EC50 in experiment [1] of 0.26 µg/mL. For the same molecule, the “% blocking of ligand binding” value in experiment [2] is greater than 95%. Further, in experiment [3], the binding result is on record as “no binding”.

B2: mouse anti-human HVEM antibody no. 49G4 (antibody, mouse IgG1, V domains shown)
VH: EVQLQQSGAELVKPGASVKLSCRASGFNIKDTYMHWVKQRPEQGLEWIGRIDPARGNTKYDPKFQGKATITADTSSNTAYLQLSSLTSEDTAVYYCASAMDYWGQGTSVTVSS
VL: DVLMTQTPLSLPVSLGDQASISCRSSQSIVHSNGNTYLEWFLQKPGQSPKLLIYKVSNRFSGVPDRFSGSGSGTDFTLKISRVEAEDLGVYYCFQGSHVPLTFGAGTKLELK
notes: mouse IgG1/kappa; also called 49G4 (mouse)
B2: a half-maximal effect in experiment [1] (EC50) was put at 0.266 µg/mL. The “% blocking of ligand binding” value was greater than 95% in experiment [2] and greater than 85% in experiment [4]. Also, the binding result in experiment [3] is “no binding”.

B3: chimeric mouse/human IgG4/kappa anti-human HVEM antibody no. 11H7 (antibody, V domains shown)
VH: QVQLKQSGPGLVQPSQSLSITCTVSGFSLTIYGVHWVRQSPGKGLEWLGVIWSGGSTDYNAAFISRLSISKDNSKSQVFFKMNSLQANDTAIYYCARRDYGSRSFYYAMDYWGQGTSVTVSS
VL: EIVLTQSPALMAASPGEKVTITCSVSSSISSSNLHWYQQKSETSPKPWIYGTSNLASGVPVRFSGSGSGTSYSLTISSMEAEDAATYYCQQWSSYPLTFGGGTKLEIKR
notes: 40/41 within the entry; Stabilized human IgG4 (S239P) already in the entry; also called chimeric 11H7
For the molecule B3, the EC50 in experiment [1] turned out to be 0.63 µg/mL. In addition, the “% displacement of pre-bound ligand” value in experiment [5] was less than 20%; in experiment [6] it was greater than 95%. Further, the “% blocking of ligand binding” value in experiment [2] was greater than 95%; in experiment [4], greater than 55%.

B4: mouse anti-human HVEM antibody no. 11H7 (antibody, mouse IgG1, V domains shown)
VH: QVQLKQSGPGLVQPSQSLSITCTVSGFSLTIYGVHWVRQSPGKGLEWLGVIWSGGSTDYNAAFISRLSISKDNSKSQVFFKMNSLQANDTAIYYCARRDYGSRSFYYAMDYWGQGTSVTVSS
VL: EIVLTQSPALMAASPGEKVTITCSVSSSISSSNLHWYQQKSETSPKPWIYGTSNLASGVPVRFSGSGSGTSYSLTISSMEAEDAATYYCQQWSSYPLTFGGGTKLEIK
notes: mouse IgG1/kappa; also called 11H7 (mouse)
Take B4: the EC50 in experiment [1] was 0.532 µg/mL. Moreover, the “% blocking of ligand binding” value was greater than 95% in experiment [2] and greater than 60% in experiment [4]. In experiment [3], the binding result is given as “no binding”.
